Test results published in patent publication US20180265864, “Genome Engineering Methods Using a Cytosine-Specific CAS9” (Florida State University Research Foundation, Inc., published 2018).

T1: AceCas9 (in E. coli) (Acidothermus cellulolyticus 11B) (UniProt A0LWB3)
T1 sequence: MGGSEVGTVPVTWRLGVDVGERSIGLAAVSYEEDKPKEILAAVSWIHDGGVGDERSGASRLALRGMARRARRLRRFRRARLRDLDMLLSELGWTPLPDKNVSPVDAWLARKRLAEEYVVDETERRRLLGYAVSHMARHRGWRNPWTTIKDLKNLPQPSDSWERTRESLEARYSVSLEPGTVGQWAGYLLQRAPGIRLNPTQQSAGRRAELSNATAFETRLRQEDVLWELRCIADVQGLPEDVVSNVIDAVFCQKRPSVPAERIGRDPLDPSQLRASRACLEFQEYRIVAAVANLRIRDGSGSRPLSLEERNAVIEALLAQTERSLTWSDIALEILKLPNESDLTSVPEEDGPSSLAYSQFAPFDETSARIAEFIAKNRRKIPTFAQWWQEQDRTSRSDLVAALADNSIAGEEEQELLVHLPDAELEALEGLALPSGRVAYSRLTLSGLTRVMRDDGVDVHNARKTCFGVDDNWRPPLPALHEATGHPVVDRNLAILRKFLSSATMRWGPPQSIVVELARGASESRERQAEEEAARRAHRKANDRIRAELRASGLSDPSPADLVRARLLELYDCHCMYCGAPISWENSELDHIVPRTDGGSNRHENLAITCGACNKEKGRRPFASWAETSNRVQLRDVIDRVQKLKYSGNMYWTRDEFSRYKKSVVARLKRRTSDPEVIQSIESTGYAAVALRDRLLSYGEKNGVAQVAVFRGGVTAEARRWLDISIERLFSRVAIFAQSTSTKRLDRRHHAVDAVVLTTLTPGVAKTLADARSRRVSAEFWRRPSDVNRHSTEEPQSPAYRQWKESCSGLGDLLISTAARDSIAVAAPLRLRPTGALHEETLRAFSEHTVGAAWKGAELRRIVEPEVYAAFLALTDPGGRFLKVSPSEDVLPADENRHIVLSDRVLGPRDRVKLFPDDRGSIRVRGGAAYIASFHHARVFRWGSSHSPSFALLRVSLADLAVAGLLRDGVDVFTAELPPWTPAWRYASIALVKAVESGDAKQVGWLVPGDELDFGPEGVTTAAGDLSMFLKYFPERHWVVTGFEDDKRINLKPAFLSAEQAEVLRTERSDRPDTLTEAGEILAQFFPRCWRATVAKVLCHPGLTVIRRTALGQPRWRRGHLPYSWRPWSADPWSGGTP

T2: AceCas9 (Type II-C Cas9) (Acidothermus cellulolyticus 11B, UniProt A0LWB3 A0LWB3:1-1138)
T2 sequence: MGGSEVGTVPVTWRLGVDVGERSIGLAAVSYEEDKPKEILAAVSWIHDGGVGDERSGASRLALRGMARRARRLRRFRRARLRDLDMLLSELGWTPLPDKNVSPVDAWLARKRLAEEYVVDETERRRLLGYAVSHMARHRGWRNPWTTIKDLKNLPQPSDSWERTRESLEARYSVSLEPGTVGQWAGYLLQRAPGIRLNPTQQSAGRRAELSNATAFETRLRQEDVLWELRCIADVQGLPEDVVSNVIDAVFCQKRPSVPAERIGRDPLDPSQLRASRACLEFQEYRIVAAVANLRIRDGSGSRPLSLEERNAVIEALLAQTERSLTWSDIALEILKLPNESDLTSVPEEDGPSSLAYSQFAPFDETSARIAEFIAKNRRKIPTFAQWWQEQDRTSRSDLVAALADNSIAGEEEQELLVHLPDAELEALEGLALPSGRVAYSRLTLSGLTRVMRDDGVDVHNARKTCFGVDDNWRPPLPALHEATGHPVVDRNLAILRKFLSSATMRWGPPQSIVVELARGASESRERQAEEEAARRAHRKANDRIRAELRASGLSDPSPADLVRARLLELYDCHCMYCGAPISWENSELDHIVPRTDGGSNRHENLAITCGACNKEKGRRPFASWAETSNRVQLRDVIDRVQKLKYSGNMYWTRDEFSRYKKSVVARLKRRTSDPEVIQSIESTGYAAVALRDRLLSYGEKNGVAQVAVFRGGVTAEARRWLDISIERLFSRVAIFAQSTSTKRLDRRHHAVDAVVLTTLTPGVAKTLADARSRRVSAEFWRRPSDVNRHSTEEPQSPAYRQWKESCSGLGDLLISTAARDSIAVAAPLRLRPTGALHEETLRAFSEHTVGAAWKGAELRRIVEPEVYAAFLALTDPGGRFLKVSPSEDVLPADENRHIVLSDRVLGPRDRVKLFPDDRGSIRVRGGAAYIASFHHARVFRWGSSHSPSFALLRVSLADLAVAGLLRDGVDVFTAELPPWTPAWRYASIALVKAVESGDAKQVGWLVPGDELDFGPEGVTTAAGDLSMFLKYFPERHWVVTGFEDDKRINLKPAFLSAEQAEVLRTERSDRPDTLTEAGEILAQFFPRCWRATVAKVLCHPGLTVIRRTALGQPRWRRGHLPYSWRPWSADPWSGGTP


Key:
[1] = biological target: T1, AceCas9 (in E. coli) (Acidothermus cellulolyticus 11B); test: cell_activity
AceCas9 (Type II-C Cas9) = biological target: T2, AceCas9 (Type II-C Cas9); test: cleavage_in_vitro; 50 C; conditions: tags: C-terminal His6 (pET28b, E. coli Rosetta DE3); linear plasmid

Molecule | activity ([1]; E. coli ccdB selection) [% survival] | also measured
sgRNA 22-nt spacer ; ccdB plasmid PAMWT | < 0.01 | –
sgRNA 26-nt spacer ; ccdB plasmid PAMC(4,5)T | – | activity ([1]; [28,29], NNNTT PAM): < 0.001 % survival
sgRNA 26-nt spacer ; ccdB plasmid PAMWT | 13.6 | –
sgRNA 24-nt spacer (template bottom strand; RNA is reverse complement without promoter) ; pUC19 WT target, BamHI-linearized (ssRNA ; dsDNA) RNA: GGUAGGAUGGCAAGAUCCUGGUAUGCUGGGGAGCCUGAAAAGGCUACCUAGCAAGACCCCUUCGUGGGGUCGCAUUCUUCACCCCCUCGCAGCAGCGAGGGGGUUC DNA 1: GGTAGGATGGCAAGATCCTGGTATACACC DNA 2: GGTGTATACCAGGATCTTGCCATCCTACC | – | activity (AceCas9 (Type II-C Cas9)): 0.53 min⁻¹
